Experimental data taken from the supplement of paper PMC12042874.
± gives the uncertainty stated by the source.

Experiment: amyloid nucleation score (Sup35N fusion, yeast selection) (log enrichment); library NNK3; higher = more nucleation; inactive = no reads after selection
How it was run: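 The nucleation score is the DiMSum log enrichment of output over input reads, centred on the mode score of non-aggregating sequences. Only sequences with 100 or more input reads were scored, using Illumina sequencing of input and output plasmid inserts. Psi-negative yeast expressing Sup35N fused to peptides of 20 random codons were induced 24 hours with 100 μM copper sulfate and grown 7 days at 30°C on medium lacking adenine and uracil.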

Substance	amyloid nucleation score
VKLALRTAFVGSQVYRILRA	-0.076 ± 0.88
VKLRPLCAVKIRRYLYVVRE	-0.054 ± 0.3
VKLSL	inactive
VKWKDVDLFGLC	inactive
VKWWGAES	inactive
VKYVNEPVSHSIDWIPSPFP	0.559 ± 0.24
VLFSFAMLFKACLACFISCV	inactive
VLGYYAKGDRSSWSRGYSY	0.194 ± 0.87
VLKASNFV	inactive
VLKDNF	inactive
VLKFFLTAMVD	inactive
VLLAIGWVGGIFCGIWAGSH	inactive
VLLPAGRIR	inactive
VLLVLVI	inactive
VLMISCTS	inactive
VLMSYQVCV	inactive
VLNSIGPYVMTKR	0.139 ± 0.63
VLPENIILNFIQMSDNRFLL	1.8 ± 0.072
VLQLDL	inactive
VLRAGELLF	inactive
VLRSNHFD	inactive
VLSFLPCGLIPIISVALWCC	1.17 ± 0.099
VLTSYGRNRH	inactive

Substance	amyloid nucleation score
VMFCFKRHLL	0.922 ± 0.15
VMGDSVRIAELQIWAEINGL	1.07 ± 0.14
VMHMWCHQGRVWFSTSGFLG	0.35 ± 0.19
VMNHLRRTNLVPTSAVNAYN	inactive
VMQQYLYNLCCL	2.83 ± 0.052
VMRFHVLKVLACCVNGGFDL	2.73 ± 0.072
VMSCYAYYFTTRQDFPFLWD	inactive
VMSGAKPARSLFLSTLQHIS	inactive
VMSSMWLAGQTWLSYNCICD	2.35 ± 0.075
VMVRTNMCR	inactive
VMWPIGSCDRE	inactive
VNDPEAR	-0.391 ± 1.2
VNDSAGVKLAVDCERTRKGG	-0.5 ± 0.98
VNDVLIRKCLAMESNVNEAI	inactive
VNFILSTAHLL	inactive
VNIRLMVKIRFDSVLRILPY	0.509 ± 0.31
VNLFHSYCMAISRIITISSL	inactive
VNSMSC	inactive
VNWHNIKVTEDVKVG	inactive
VNYDSVLYLVFLCIYLHKNR	inactive
VPSNLGKPHMCRRSRDYFTA	inactive
VPSVYKKRWWYHKPWHNRHV	inactive
VPTVLDRFDMMHVSEYRDGA	inactive

Substance	amyloid nucleation score
VQCRSHWHWRRPGPEARSVW	inactive
VQFLRFQVHELFSRPFIA	inactive
VQGKALAS	inactive
VQGSTIGG	inactive
VQGTTVDMDYYFTVSCLHAK	inactive
VQKSMR	inactive
VQPVGSSKGVRGVE	0.983 ± 0.2
VQWSVSFLSVVGVPWYRRLV	inactive
VRCVVGITVFGIHERVTSER	0.169 ± 0.61
VRDIRAIL	-0.551 ± 1.1
VRFTHKCSLG	inactive
VRGGHSTTGI	inactive
VRGYLYRCKAGSLACHPDPG	inactive
VRIMCMSWIVVWHYMC	inactive
VRLRDLN	inactive
VRLRVEYAKSEWKMIFGEFY	inactive
VRLSRAVILLAVIHLRWGLT	inactive
VRLYADNNLSAITKLLCPKN	inactive
VRMFRDLLYPAEYLS	inactive
VRNEYACNCTYMRIARLDE	0.319 ± 0.29
VRNLVHHPYAFL	inactive
VRNRWA	inactive
VRRVQSLRPPAHVSLAPYRA	inactive
